Data on 3 substances can be found in patent US8933021B2, “Insulin derivative” (Novo Nordisk A/S, priority 2006, dated 2015).

A short description of data set [1]: Hydrophobicity (hydrophobic index k'rel) relative to human insulin by isocratic RP-HPLC. It is filed as physicochemical. How it is done:
The elution was monitored by following the UV absorption of the eluate at 214 nm. Void time, t0, was found by injecting 0.1 mM sodium nitrate.

Another data set has as its target human insulin receptor (Homo sapiens, UniProt P06213). As to the kind of experiment: Insulin receptor binding, SPA antibody capture assay. How it is done: SPA-PVT antibody-binding beads, anti-mouse reagent (Amersham Biosciences, Cat No. PRNQ0017) were mixed with 25 ml of binding buffer (100 mM HEPES pH 7.8; 100 mM sodium chloride, 10 mM MgSO4, 0.025% Tween-20). […] A total of 100 μl was then added and a dilution series is made from appropriate samples. To the dilution series was then added 100 μl of reagent mix and the samples were incubated for 16 hours while gently shaken. The phases were the then separated by centrifugation for 1 min and the plates counted in a Topcounter. The binding data were fitted using the nonlinear regression algorithm in the GraphPad Prism 2.01 (GraphPad Software, San Diego, Calif.).

Data set [2] is described as follows: Self-association by size exclusion chromatography (SEC), Kav. Type of data set: physicochemical. How it is done:
The ability of the insulin derivatives of the invention to self-associate into large, but soluble complexes is analysed using SEC (size exclusion chromatography):
The following equation is used to determine the Kav for the derivative: Kav=(t−t0)/(Vt/(f+td−t0)) Where t is the retention time for a given peak, t0 is the retention time for Blue dextran, Vt is the total column volume (here 2.4 ml), f is the flow (here 0.04 ml/min), and td is the retention time for Blue dextran without the column in the system.
Background: In gel filtration, larger molecules generally elute earlier.

Where [3] appears, read: LiChrosorb RP18, 40° C., pH 7.3, HI = 1.
[4] abbreviates: recombinant human insulin receptor-exon 11, SPA.

Sequence of human insulin receptor (P06213 28-746 isoform P06213-2 limits assumed): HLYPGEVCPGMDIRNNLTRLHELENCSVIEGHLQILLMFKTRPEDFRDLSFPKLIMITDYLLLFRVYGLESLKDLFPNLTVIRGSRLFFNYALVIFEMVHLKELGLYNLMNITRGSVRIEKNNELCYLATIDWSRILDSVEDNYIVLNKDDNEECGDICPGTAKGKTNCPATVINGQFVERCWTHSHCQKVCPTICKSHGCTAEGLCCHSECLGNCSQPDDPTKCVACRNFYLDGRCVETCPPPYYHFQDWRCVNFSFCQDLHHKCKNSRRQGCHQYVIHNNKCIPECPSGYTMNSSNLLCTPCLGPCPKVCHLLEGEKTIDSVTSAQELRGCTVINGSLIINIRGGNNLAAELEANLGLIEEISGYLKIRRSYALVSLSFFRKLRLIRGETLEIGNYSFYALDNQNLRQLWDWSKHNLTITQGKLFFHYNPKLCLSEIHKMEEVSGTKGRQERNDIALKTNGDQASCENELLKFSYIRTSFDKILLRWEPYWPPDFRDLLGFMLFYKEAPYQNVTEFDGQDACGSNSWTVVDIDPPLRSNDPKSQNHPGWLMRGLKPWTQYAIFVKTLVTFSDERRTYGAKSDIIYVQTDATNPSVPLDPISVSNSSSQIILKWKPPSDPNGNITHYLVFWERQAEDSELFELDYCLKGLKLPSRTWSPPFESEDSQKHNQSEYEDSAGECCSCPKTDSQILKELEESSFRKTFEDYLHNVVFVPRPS
Sequence of human insulin receptor (P06213 763-1382 partner limits assumed): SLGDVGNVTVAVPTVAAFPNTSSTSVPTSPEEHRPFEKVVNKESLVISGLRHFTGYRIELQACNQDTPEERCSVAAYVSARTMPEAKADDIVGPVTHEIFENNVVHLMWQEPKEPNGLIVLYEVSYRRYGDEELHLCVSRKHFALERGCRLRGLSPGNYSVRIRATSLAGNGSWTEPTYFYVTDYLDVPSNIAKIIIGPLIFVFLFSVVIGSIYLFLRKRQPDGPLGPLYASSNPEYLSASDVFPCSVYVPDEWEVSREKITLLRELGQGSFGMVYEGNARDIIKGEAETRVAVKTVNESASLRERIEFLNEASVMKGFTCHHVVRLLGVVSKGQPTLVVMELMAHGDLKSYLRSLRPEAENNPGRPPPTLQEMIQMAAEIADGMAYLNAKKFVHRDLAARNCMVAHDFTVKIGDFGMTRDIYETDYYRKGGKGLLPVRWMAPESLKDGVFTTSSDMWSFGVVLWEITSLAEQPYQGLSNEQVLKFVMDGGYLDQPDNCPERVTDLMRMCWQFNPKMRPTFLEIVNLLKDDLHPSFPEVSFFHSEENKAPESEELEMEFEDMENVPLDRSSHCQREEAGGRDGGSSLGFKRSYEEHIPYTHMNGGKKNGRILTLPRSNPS

“N^εB29-(3-(3-{4-[3-(7-carboxyheptanoylamino)propoxy]butoxy}propylcarbamoyl)-propionyl-γ-glutamylamide) desB30 human Insulin [Example 11]”: the “Hydrophobicity relative to human insulin” value is reported as 0.435 in data set [1] (setting [3]) and “+++ (k'rel < 1: +++)” in data set [1] (class symbol, HI = 1). The “Insulin receptor affinity relative to human insulin” value with human insulin receptor (class symbol) is given as “++ (5-50%: ++)”; with human insulin receptor (setting [4]) it was 43%.
On to “N^εB29-ω-carboxy-pentadecanoyl-γ-L-aspartylamide desB30 human insulin [Example 6]”, for which the “Insulin receptor affinity relative to human insulin” value was “++ (5-50%: ++)” at human insulin receptor (class symbol) and 33% on human insulin receptor (setting [4]).
For “N^εB29-ω-carboxy-undecanoyl-δ-amino-butanoyl desB30 human insulin [Example 13]”, the “Hydrophobicity relative to human insulin” value in data set [1] (setting [3]) was 0.552; in data set [1] (class symbol, HI = 1) it was “+++ (k'rel < 1: +++)”. The “Insulin receptor affinity relative to human insulin” value with human insulin receptor (class symbol) is recorded as “+++ (>50%: +++)”; with human insulin receptor (setting [4]) it was 59%. The “Self-association: Kav” value is given as 0.69 in data set [2] (SEC Superose 6, 37° C., 0.6 mM derivative, 2.1 Zn2+/hexamer, 16 mM phenol, pH 7.8, one value per peak) and “+ (Kav ≧ 0.55: +)” in data set [2] (class symbol). For the same substance, the “Self-association: % area of peak” value in data set [2] (area of the peak whose Kav is in the cell above) was “(100%)”.
